Assay [1] addresses T1, plasma kallikrein catalytic domain Mutant 2 (R551A, Q553A, Y555A, T558A, R560A) (human, UniProt P03952 391-638).
T1 construct: Expressed in Pichia pastoris
The assay is described as follows: Ki,app; IgG inhibition of PKal catalytic domain cleavage of a substrate peptide, Morrison fit. As to the method: (§1) Briefly, PKal and a Fab at various concentrations are incubated together for 1 hour at 30° C. A substrate peptide (cleavable by PKal) is then added to this PKal-Fab mixture. The rate of substrate peptide cleavage/proteolysis is then measured, and plotted against the concentrations of the Fab. This plot is then fit to the Morrison equation, which calculates the K_{i,app} value. The results thus obtained are shown in FIGS. 5A-5D and Table 3 below:
(§2) The inhibitory activity of X115-F02 against the wild-type PKal and the mutants were carried out using the method described in Example 3 above and the K_{i,app} values were determined.

Assay [2] addresses T2, wild type plasma kallikrein catalytic domain (recombinant, Pichia pastoris) (human, UniProt P03952 391-638).
T2 construct: also called wild-type PKal
The assay is described as follows: enzyme inhibition assay: rate (F/s) of substrate peptide cleavage by PKal against [IgG] (nM), fitted to the Morrison equation; apparent Ki (Ki,app). As to the method: as §1, §2

Assay [3] addresses T3, plasma kallikrein catalytic domain Mutant 1 (S478A, N481A, S506A, Y507A) (human, UniProt P03952 391-638).
T3 construct: Expressed in Pichia pastoris
The description is as above. As for the experimental part:
as §1, §2

The target in assay [4] is T1, plasma kallikrein catalytic domain …. Described as above. As to the method:
as §1, §2

Assay [5] concerns the target T4, plasma kallikrein catalytic domain Mutant 4 (N396A, S398A, W399A) (human, UniProt P03952 391-638).
T4 construct: Expressed in Pichia pastoris
Described as above. As for the experimental part:
as §1, §2

The target in assay [6] is T5, human plasma kallikrein (PKal) (human, UniProt P03952 20-638).
T5 construct: Active PKal is cleaved at the marked R/I site into two disulfide-linked chains; also called human Pkal; active PKal
T5 sequence (P03952 20-638 limits assumed): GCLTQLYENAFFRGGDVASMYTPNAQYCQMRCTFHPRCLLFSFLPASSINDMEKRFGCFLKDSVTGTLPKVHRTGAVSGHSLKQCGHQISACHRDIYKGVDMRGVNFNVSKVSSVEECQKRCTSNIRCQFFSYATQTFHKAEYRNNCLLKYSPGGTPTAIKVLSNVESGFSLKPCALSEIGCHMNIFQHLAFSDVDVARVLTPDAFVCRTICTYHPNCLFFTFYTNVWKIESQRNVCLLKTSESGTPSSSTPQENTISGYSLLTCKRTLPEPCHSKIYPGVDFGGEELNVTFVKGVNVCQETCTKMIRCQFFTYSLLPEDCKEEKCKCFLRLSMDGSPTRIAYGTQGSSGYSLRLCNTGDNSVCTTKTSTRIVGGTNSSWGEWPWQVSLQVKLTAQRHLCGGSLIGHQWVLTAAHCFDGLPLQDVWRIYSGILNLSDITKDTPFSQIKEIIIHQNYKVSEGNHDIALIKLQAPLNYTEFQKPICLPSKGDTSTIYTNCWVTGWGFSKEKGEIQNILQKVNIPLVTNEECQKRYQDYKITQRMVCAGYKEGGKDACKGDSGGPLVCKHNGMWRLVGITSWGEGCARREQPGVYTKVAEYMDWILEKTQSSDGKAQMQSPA
The assay is described as follows: Ki,app; Fab inhibition of PKal cleavage of a substrate peptide, Morrison fit. As to the method: (§3) Briefly, PKal and a Fab at various concentrations are incubated together for 1 hour at 30° C. A substrate peptide (cleavable by PKal) is then added to this PKal-Fab mixture. The rate of substrate peptide cleavage/proteolysis is then measured, and plotted against the concentrations of the Fab. This plot is then fit to the Morrison equation, which calculates the K_{i,app} value. The results thus obtained are shown in FIGS. 5A-5D and Table 3 below: […]

Assay [7] addresses T5, human plasma kallikrein (PKal). The assay is described as follows: enzyme inhibition assay: rate (F/s) of substrate peptide cleavage by PKal against [Fab] (nM), fitted to the Morrison equation; apparent Ki (Ki,app); Table 3 prints it rounded, 14.7 nM.
Assay [8] has the same target. The assay is described as follows: enzyme inhibition assay: rate (F/s) of substrate peptide cleavage by PKal against [Fab] (nM), fitted to the Morrison equation; apparent Ki (Ki,app); Table 3 prints 0.33 nM. As to the method:
as §3

T1 sequence (P03952 391-638 R551A/Q553A/Y555A/T558A/R560A): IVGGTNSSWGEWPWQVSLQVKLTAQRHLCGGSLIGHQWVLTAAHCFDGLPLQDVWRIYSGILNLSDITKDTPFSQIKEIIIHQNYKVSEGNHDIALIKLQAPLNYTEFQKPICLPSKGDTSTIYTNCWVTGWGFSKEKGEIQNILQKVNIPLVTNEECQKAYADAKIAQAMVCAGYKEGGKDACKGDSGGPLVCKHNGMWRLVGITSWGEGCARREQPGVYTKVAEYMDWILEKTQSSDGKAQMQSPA
T2 sequence (P03952 391-638): as the sequence (P03952 391-638 R551A/Q553A/Y555A/T558A/R560A) above, with A161R, A163Q, A165Y, A168T, A170R counted along it
T3 sequence (P03952 391-638 S478A/N481A/C503S/S506A/K507A limits assumed): as the sequence (P03952 391-638 R551A/Q553A/Y555A/T558A/R560A) above, with S88A, N91A, C113S, S116A, K117A, A161R, A163Q, A165Y, A168T, A170R counted along it
T4 sequence (P03952 391-638 N396A/S398A/W399A): as the sequence (P03952 391-638 R551A/Q553A/Y555A/T558A/R560A) above, with N6A, S8A, W9A, A161R, A163Q, A165Y, A168T, A170R counted along it

B1: X115-F02 (antibody, human IgG1, kappa, V domains shown)
VH: EVQLLESGGGLVQPGGSLRLSCAASGFTFSHYIMMWVRQAPGKGLEWVSGIYSSGGITVYADSVKGRFTISRDNSKNTLYLQMNSLRAEDTAVYYCAYRRIGVPRRDEFDIWGQGTMVTVSS
VL: DIQMTQSPSTLSASVGDRVTITCRASQSISSWLAWYQQKPGKAPKLLIYKASTLESGVPSRFSGSGSGTEFTLTISSLQPDDFATYYCQQYNTYWTFGQGTKVEIKR
notes: also called mutant X115-F02
Regarding B1, in assay [1], the “fold reduction of potency (Ki,app) against wild-type PKal” value was about 65 fold. In addition, the Ki is 0.09 nM in assay [2], 0.14 nM in assay [3], 5.9 nM in assay [4] and 0.1 nM in assay [5].

B2: X133-F10 (Fab, V domains shown)
VH: EVQLLESGGGLVQPGGSLRLSCAASGFTFSHYIMMWVRQAPGKGLEWVSGIYSSGGITVYADSVKGRFTISRDNSKNTLYLQMNSLRAEDTAVYYCAYRRTGLPRRDAFDIWGQGTMVTVSS
VL: DIQMTQSPSTLSASVGDRVTITCRASQSISSWLAWYQQKPGKAPNLLIYKASTLESGVPSRFSGSGSGTEFTLTISSLQPDDFATYYCQQYNTYWTFGQGTKVEIK
On to B2, for which the Ki in assay [6] and in assay [7] was 14.7 nM in each case.

B3: X133-D06 (Fab, V domains shown)
VH: EVQLLESGGGLVQPGGSLRLSCAASGFTFSHYIMMWVRQAPGKGLEWVSGIYSSGGITVYADSVKGRFTISRDNSKNTLYLQMNSLRAEDTAVYYCAYRRIGIPRRDEFDIWGQGTMVTVSS
VL: DIQMTQSPSTLSASVGDRVTITCRASQSISSWLAWYQQKPGKAPNLLIYKASTLESGVPSRFSGSGSGTEFTLTISSLQPDDFATYYCQQYNTYWTFGQGTKVEIK
notes: HC CDR3 variant of M0162-A04, tested as Fab
As to B3, the Ki was 0.33 nM in assay [6] and 0.301 nM in assay [8].

(Values after patent publication US20150274841A1 (DYAX, published 2015).)
